Experimental data: patent US20220143148A1, “COMPOSITIONS AND METHODS FOR MODULATING CGRP SIGNALING TO REGULATE INTESTINAL INNATE LYMPHOID CELLS” (The Broad Institute, Inc., priority 2019, published 2022)

Tested on: small intestinal immune cells
Assay: Droplet-based scRNA-seq of small intestinal immune cells (LP and PP), OVA vs PBS, clustering and differential expression
Format: in vivo, mouse
Conditions: cluster ID 6, PP
Excerpt: To comprehensively characterize small intestinal immune cells, Applicants generated scRNA-Seq profiles for 58,067 immune cells collected from lamina propria (LP) and Peyer's patch (PP) regions at steady state and after induction of a type 2 inflammatory reaction to ovalbumin (OVA) (Brandt et al., 2003) (FIGS. 1A and 8A). To ensure sufficient representation of rare cells, Applicants combined a normalization strategy—removing by flow sorting either a portion of IgD+ naïve B cells, which are the most abundant cell type in PPs, or all CD19+ and CD3+ T cells (FIG. 8B, Methods)—with profiling of a sufficiently large number of cells number (P>0.99 to recover at least 15 cells from each cluster, Methods) by massively parallel scRNA-seq (Haber et al., 2017) (Methods). Applicants obtained 36,797 and 21,270 high quality cells passing initial filtering (Methods) from PP and LP regions, respectively.
Overall, Applicants annotated 27 cell subsets across the two compartments, spanning T cells, B cells, ILCs, dendritic cells (DCs), myeloid cells and stromal cells, in frequencies ranging from 0.07% to 14%. Briefly, Applicants first partitioned the cells from the PP regions by unsupervised clustering (Methods) into 46 clusters, retained the 97% of cells that were robustly assigned cell identities in each cluster (Methods), assigned the cells from the LP regions to the 46 clusters using a classifier (Methods), and visualized the data with scvis (Ding et al., 2018), a deep generative model-based method (FIGS. 1B and 8C, Methods). Next, Applicants identified genes that were differentially expressed between the cells in each cluster and the remaining cells (Table 1, Methods), as well as between pairs of clusters (Table 2), to elucidate identities of similar cell types/states. Applicants excluded from downstream analysis clusters mostly consisting of contaminants from epithelium, likely doublets, or cells with a small number of Unique Molecular Identifiers (UMIs) (FIGS. 1C and 8D), or lacking distinct markers (Methods). Altogether, Applicants retained 27 clusters spanning 85% of the cells and each associated with distinct marker genes (FIG. 8E, Methods).
To induce allergic reaction to OVA, 6 to 7 weeks old mice were sensitized twice, two weeks apart, with 50 μg of OVA plus 1 mg of aluminum potassium sulfate adjuvant via intraperitoneal injection. Two weeks later, mice were orally administered with 50 mg of OVA on every other day for a total of five times. 1 μg of α-CGRP peptide was administered simultaneously when indicated. Mice were deprived of food for 3-4 hours in cages with wood chip bedding for limiting antigen degradation in the stomach before each intragastric challenge.
Isolation of cells from Peyer's patches (PPs). Peyer's patches (PPs) were carefully dissected from the small intestine under a stereo microscope using a fine scissor, pierced once with a fine forcep. Tissues were digested in freshly made digestion buffer (RPMI-1640 containing 100 μg/ml Liberase™ and 50 μg/ml DNase I at 37° C. on a roto-mixer. After 15 min, tissues were very gently mixed using a 1 ml pipette. The supernatant was collected and added to ice-cold MACS buffer (pH 7.4; PBS plus 2% FCS and 2 mM EDTA). Pre-warmed (37° C.) fresh digestion buffer was added to the remaining tissues. After rotation at 37° C. for 15 min, the mixture was vigorously mixed using a 1 ml pipette for 1 min. Supernatants from the two steps were combined and passed through 70 μm filters and stained for FACS (below).
Isolation of cells from the lamina propria (LP). The small intestines were opened longitudinally and washed in ice-cold PBS. For scRNA-seq, roughly 0.5 cm of fragments from each of the distal, middle and proximal regions without visible PPs were collected. Epithelial cells were dissociated by tissue rotation in pre-warmed (37° C.) PBS containing 10 mM EDTA at 37° C. for 15 min, followed by additional incubation on ice for 15 min. Tissues were then shaken vigorously. […]

B1: OVA (protein, UniProt P01012 2-386, looked up)
Ovalbumin: GSIGAASMEFCFDVFKELKVHHANENIFYCPIAIMSALAMVYLGAKDSTRTQINKVVRFDKLPGFGDSIEAQCGTSVNVHSSLRDILNQITKPNDVYSFSLASRLYAEERYPILPEYLQCVKELYRGGLEPINFQTAADQARELINSWVESQTNGIIRNVLQPSSVDSQTAMVLVNAIVFKGLWEKAFKDEDTQAMPFRVTEQESKPVQMMYQIGLFRVASMASEKMKILELPFASGTMSMLVLLPDEVSGLEQLESIINFEKLTEWTSSNVMEERKIKVYLPRMKMEEKYNLTSVLMAMGITDVFSSSANLSGISSAESLKISQAVHAAHAEINEAGREVVGSAEAGVDAASVSEEFRADHPFLFCIKHIATNAVLFFGRCVSP
Mcpt1: percentage of expressing cells in OVA-treated group: 0.35 | Mcpt2: percentage of expressing cells in OVA-treated group: 0.212 | Mir142hg: percentage of expressing cells in OVA-treated group: 0.169 | Mpeg1: percentage of expressing cells in OVA-treated group: 0.992 | Napsa: percentage of expressing cells in OVA-treated group: 0.888 | Neat1: percentage of expressing cells in OVA-treated group: 0.885 | Nfkbia: percentage of expressing cells in OVA-treated group: 0.661 | Nfkbiz: percentage of expressing cells in OVA-treated group: 0.336 | Npc2: percentage of expressing cells in OVA-treated group: 0.985 | Nr4a1: percentage of expressing cells in OVA-treated group: 0.508 | Nr4a3: percentage of expressing cells in OVA-treated group: 0.134 | Odc1: percentage of expressing cells in OVA-treated group: 0.366 | Os9: percentage of expressing cells in OVA-treated group: 0.441 | Pik3ip1: percentage of expressing cells in OVA-treated group: 0.423 | Pim1: percentage of expressing cells in OVA-treated group: 0.509 | Plek: percentage of expressing cells in OVA-treated group: 0.617 | Plekho2: percentage of expressing cells in OVA-treated group: 0.201 | Pltp: percentage of expressing cells in OVA-treated group: 0.878 | Pnrc1: percentage of expressing cells in OVA-treated group: 0.706 | Ppia: percentage of expressing cells in OVA-treated group: 0.998 | Ppp1r16b: percentage of expressing cells in OVA-treated group: 0.237 | Ppp2ca: percentage of expressing cells in OVA-treated group: 0.539 | Psap: percentage of expressing cells in OVA-treated group: 0.997 | Ptp4a1: percentage of expressing cells in OVA-treated group: 0.4 | Ptpre: percentage of expressing cells in OVA-treated group: 0.392 | Rel: percentage of expressing cells in OVA-treated group: 0.381 | Rgs1: percentage of expressing cells in OVA-treated group: 0.466 | Rilpl2: percentage of expressing cells in OVA-treated group: 0.851 | Rnase6: percentage of expressing cells in OVA-treated group: 0.991 | Rnf19b: percentage of expressing cells in OVA-treated group: 0.255 | Rpn2: percentage of expressing cells in OVA-treated group: 0.664 | Runx3: percentage of expressing cells in OVA-treated group: 0.53 | S1pr4: percentage of expressing cells in OVA-treated group: 0.351 | Sell: percentage of expressing cells in OVA-treated group: 0.983 | Selplg: percentage of expressing cells in OVA-treated group: 0.992 | Sf3b1: percentage of expressing cells in OVA-treated group: 0.706 | Siah2: percentage of expressing cells in OVA-treated group: 0.253 | Skil: percentage of expressing cells in OVA-treated group: 0.435 | Sla2: percentage of expressing cells in OVA-treated group: 0.735 | Smc6: percentage of expressing cells in OVA-treated group: 0.849 | Socs3: percentage of expressing cells in OVA-treated group: 0.55 | Spsb2: percentage of expressing cells in OVA-treated group: 0.187 | Tgif1: percentage of expressing cells in OVA-treated group: 0.115 | Tnfaip8l2: percentage of expressing cells in OVA-treated group: 0.512 | Traf4: percentage of expressing cells in OVA-treated group: 0.535 | Trim25: percentage of expressing cells in OVA-treated group: 0.339 | VgIl4: percentage of expressing cells in OVA-treated group: 0.34 | Vps37b: percentage of expressing cells in OVA-treated group: 0.424 | Wnk1: percentage of expressing cells in OVA-treated group: 0.605 | Zc3h12a: percentage of expressing cells in OVA-treated group: 0.135 | Zfand5: percentage of expressing cells in OVA-treated group: 0.423 | Zfp36l2: percentage of expressing cells in OVA-treated group: 0.783 | AY036118: LN (average fold change) (OVA vs PBS): −0.256 | Atf3: LN (average fold change) (OVA vs PBS): −0.693 | Atp5h: LN (average fold change) (OVA vs PBS): 0.168 | B3gnt8: LN (average fold change) (OVA vs PBS): 0.265 | Bcl2l11: LN (average fold change) (OVA vs PBS): −0.499 | Bhlhe40: LN (average fold change) (OVA vs PBS): −0.297 | Bloc1s2: LN (average fold change) (OVA vs PBS): 0.218 | Btg2: LN (average fold change) (OVA vs PBS): −0.156 | Ccl4: LN (average fold change) (OVA vs PBS): 0.241 | Cd68: LN (average fold change) (OVA vs PBS): 0.204 | Cd83: LN (average fold change) (OVA vs PBS): −0.472 | Cdv3: LN (average fold change) (OVA vs PBS): −0.219 | Clcn3: LN (average fold change) (OVA vs PBS): −0.239 | Clec10a: LN (average fold change) (OVA vs PBS): 0.327 | Clec2d: LN (average fold change) (OVA vs PBS): 0.409 | Coq10b: LN (average fold change) (OVA vs PBS): −0.336 | Crem: LN (average fold change) (OVA vs PBS): −0.279 | Cxcr3: LN (average fold change) (OVA vs PBS): 0.302 | Cxcr4: LN (average fold change) (OVA vs PBS): 0.491 | D13Ertd608e: LN (average fold change) (OVA vs PBS): 0.276 | Ddit4: LN (average fold change) (OVA vs PBS): 1.322 | Ddx3x: LN (average fold change) (OVA vs PBS): −0.202 | Defa24: LN (average fold change) (OVA vs PBS): −1.145
